In the supplement of paper PMC12636428:

Test system: Saccharomyces cerevisiae
Assay: transcriptional activation domain activity (GFP:mCherry ratio, weighted mean of sorted bins, harmonized to initial dataset scale) (arbitrary fluorescence ratio units); higher = stronger transcriptional activation
Settings: beta-estradiol 1 µM; induction time 4 h
Protocol: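 53-aa protein tiles (fungal proteins plus yeast TF control tiles) fused C-terminally to a DBD-estrogen-binding domain-mCherry synthetic TF, integrated in S. cerevisiae (URA3 locus) with a GFP reporter. Cells were induced with 1 uM beta-estradiol for 4 h at 30 C, FACS-sorted into 8 bins by GFP:mCherry ratio and barcodes sequenced. Activity is the read-weighted mean bin fluorescence (GFP:mCherry), averaged over barcodes (median 12); tiles under 50 reads were discarded. New active-learning values were harmonized by linear fit onto the scale of the initial (Hummel et al.) dataset. The assay saturates at low and high signal.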

| Sequence | transcriptional activation domain activity |
| --- | --- |
| EEEEQAKTSPAKSESKKEKKDKKKKRSADEIESGPEGTPKVAKKIKADSGAAV | 42700 |
| EEEERKQNEKRERAEERRKEKLEEEKEKREKDRKETEKKGGKGKGEQGKGKEK | 17200 |
| EEEESAAAAKKMAAVKTRKARAGSPKTKSARKATSTRPTSKTKGGAKAKRAAA | 20900 |
| EEEGAVDEDEEEEDEEDPEERRKRELRERMAKMSGGMGMAGMFGGGMPMPGAA | 58900 |
| EEEGDEDVSGSEGSSRRKGRQRNEEEDDRSAGRRSHRLKDKSRSSTRNRRGSD | 13600 |
| EEEGNSRRKRRHRDDRDSRERDERGRDRDRERRRHRRDSSRSRDASEEERGHK | 13400 |
| EEEKPKEEKPKEEKPEEEKPEEQKPEEEKPKEKPEEQKPEAPAPTPAPEPAPE | 23200 |
| EEEPATKKQKTDDAAATTNGDAKPKGKPGRPKKAESEKKSPAKKRDPKKAATA | 33700 |
| EEEQPKKKSARKKKNAEDEDEDWDAKPKPKAKPKAKAAKKKAADGEEAGDAEK | 26200 |
| EEERGEERREGEERVEQGEEGAGGEGDEEGRSAEHGAGGELAERRGEAGDAEV | 22900 |
| EEESQAKKTTAAASSTKDLDPKGGTSGKEKKENEGTLTKRGKSGRRKVRKSVL | 17800 |
| EEEVEEKKAKKEKKSKEDKEDKKAKKDKKSKKDKSKDADEDVERTNGHSTPAA | 26100 |
| EEEYEEEEEEEYEEEEDEEEDEDEEEGGEGEEEDEVKAQRGRRAATAPARARR | 28000 |
| EEGAATDGTADANGKPKKAPRKRKSQAGATTEDGQAPKRRKKKSTDAAGGAAA | 31300 |
| EEGASQRANQRGKGEEGASQTANQRGKGEEGNQRRKGRKGAKGGRGRKGAKGG | 28500 |
| EEGDMDVDEEEGTPTKKRKLSKEEKKALKKEKKKAAKDAAAAVSDYWIVCDQS | 45200 |
| EEGEGPREEGGEEAHEQRDEGRHEEREERKEERREEPVRAAVPVRAAEPAPVV | 23000 |
| EEGERKGEGGKEKWERDAVGNGGRGRQGGEQEEEREEGAGGRGKGGGGRSRGK | 45900 |
| EEGGKEKEMREVERLSADERKLWGEALRLGRTGYSESAMIWVHVLALRVFVET | 37700 |
| EEKAAGRSAASGGAEGEGKKRKAEGGEGAAGEEKKEKKKGRTYRQREPLAAGG | 54900 |
| EEKAPFDIPLDEFFTELEKHSNVSQFNTLDVSEGNQVINESASTNTSSALNCQ | 103000 |
| EEKDTKGGPATTSKAVVKGSKSAADKKKLVKGDAKGKVPENGKRDKSEEKDEK | 21800 |
| EEKKEDDWQVLDGKEKAAGGAGEGDAAEGAEGGATTEGEKKDDAGGAPAGEGA | < 6570 |
| EELWTDVDLYNAQFFFIKLLLHFNDPIYGPNTHELLIVMLGQKGGLYPLWQLL | 59700 |
| EEPKAEEAAPAAEAPAAEAPAAETPAAEPAAEQPATEEAKPAESAATETKKED | 12500 |
| EEPKAEEAKAEEAAKEEPKAEESKAEEPKAEEPKAEEPKAEEEPKAEEAAKEE | 7200 |
| EEPVPKKRGRGRPPKNPAAKAKAAAAAAAAKKAERLPKVRVHKAHTPLRENIH | < 6570 |

| Sequence | transcriptional activation domain activity |
| --- | --- |
| EEQEQDAASKAQEGSKDAPAPKSTENKNEKDAAPNDSSPSKFTKKHKAKKPSK | 24700 |
| EEREEEKEEEKEEKEQEKKKEEETRRRIRSRKRRGARRRETMRKTSQRGNRKK | 25200 |
| EERRRGRRRRRKGGGEGGRGRKREKEREERERKGEKKEGERKGKGEEKGREKK | 20300 |
| EESAEEKQEEEDSADAKKQKTNGDAEEIEEAGENDEEKAEESTSKKKGRPAKN | 25100 |
| EESGGESGGAADKNARVLSTALELALIVLDTCVELDGGRSLSLEHTALLLAAG | 69300 |
| EESLGAGMAKLNLDSATPSSHKSEPIFIAIDCEAYEEGAHAVTEVGVATLDTR | 56000 |
| EESLKHHEGINMVWRKFQSIFRIIGGIIYYEPIYRAFVRHVLHHLHLDNVLWV | 64600 |
| EETKAEEPKATEAATTSTAPAAATEATTAATAETTTEEAKPATNGSTAAADAA | 23200 |
| EETKEDESSSSPADKENEKPKANTSAKQAKPRGEKKEGAASKGKGGRKQANGT | 33200 |
| EETKPAESAKETKPVANRPAQKKPEKRKKEEQEGQEVVEKETSKKRAKKDKKS | 39200 |
| EETPVTEAPKAVEESKPVEEVKSEQKEGAAETAKDEPAQETATERSTESTPAS | 34900 |
| EETVTAEPAAVEEKDGGDDAMAIDTEEPKKKSKKDKKDKKRKAAAETTTATGT | 40600 |
| EEVKPVMAAETKPEEKKASEEAKPEEKSAETSTDKSSGVNRNAVAAAASAATS | 32400 |
| EFEVDSIDELVLILKESEQSDMLRRIGYCRKRMMSLLRLLVTKVDVVKTITKR | 38100 |
| EFFVLWVVQAIIGSRLEMYWAVLMICVLRCNQSYVSNACREVWLSWIIHGWVQ | 61500 |
| EFILHTMPVVAIKDTHAWNGNTPVELGLLGFWNLIVVWLKLLIPWRFFRLWAL | 63800 |
| EFNDIERSVYEIVRKRFIARINSFAAAGQLEKSYTNIFVMLLRLRQLTGHILT | 48200 |
| EFPAPPARPPPSHTAPPAPPPPPPPPPPPAAGGGVPPPPPPPPPPATGGAPAP | 30300 |
| EFVQVAAKPVAKKEESSDEDSDDESEDEKPAAKKAAAPVKVCSGFPYANIALI | 32200 |
| EFVRTSHGRLPAGKRLVKGGYEEDGTPLYHGMAIHEGIKVPGKISHRLYVLQS | 43700 |
| EFYLQIPFRVCMGNGRRRDRVLRDMRRAKRYSDAIEAMKRIVWPIVSFRLLLP | 63600 |
| EGAAAPAPAAAEKKEEPKKAETPKAEAPKAEAPKETSSRADAAKPAAAPKAAA | 39400 |
| EGAADGRDEGEKSKVQKVGKACVYCQRSHMTCDESRPCKRCVSRKIADLCHDR | 29900 |
| EGAASGTEEAPKPKKKKKQQPRKSKPRIDAASGTEAEPNAATESEAPAAAGAA | 16600 |
| EGADVVVEGNERRKKGESVWEKNLRKGLYGVALDYVLEQASSPIIVLTVLTAL | 60900 |
| EGAQDCGESESEGANESEEESEEENVFVVGKILDKRTNGKRKQVEYLVRCESQ | 39600 |
| EGDDEAPVQPKGRPRKSKAAAAESADEEPRPKAVRSRPSRARKSKPVASDSDV | < 6570 |

| Sequence | transcriptional activation domain activity |
| --- | --- |
| EGDRKGRGRGRGRDDRGPRDRNREREDRDEKNDKKRAREEGNDEKPAKNADSK | 54500 |
| EGDSDEEGDEDMYQQVDMNDVMDGVLEGMDNMGEERLNRGRARLKIHTGGPGK | 37300 |
| EGEAPKAEEEEEKDAAPDGEGEQPAEADPEEEERQRRAAIAARMARLGGARLG | 14200 |
| EGEDALTLPLIISSQALLVVPPEKIVALPLQQMLSLVVRAITQAFVHGAFISR | 67100 |
| EGEEDKPKAARGRKRKADADAEEPPAKKTKPASKAAPGSKPASKAAASKPASK | 25400 |
| EGEEGEEGEEGEEGEEGTCCASPLQSLALSRLRLGLSLLVDCISIESMRTYRL | 34500 |
| EGEGAADPAAGAGAGAEEDGEEEEDEGAADPAAGAGAGDEEGEGAAEEGAAES | 17600 |
| EGEGEEEAVTLKKTKKGRGGEEEAAKKGKKKGDEEDPAWEEAAAKKGKKKGEE | 37800 |
| EGEKKDQESDEKESNEEKKDDVEKLTKEMDKVTIKGEKKILGKSKGFGFVCFS | 7730 |
| EGEREREREGEEMEEVMREGTNREEKKEEEEEGKRKDKRRKETGNLLLLLVVV | 40400 |
| EGEVTTTSSEEETTTEEETTRTRPTRTTTTEEEQTTTDASSTTTSQDEETTTP | 39200 |
| EGEYKTLATDDLGNILNLNYGETNEVIMNEINDLNLPLGPLSDEKSVKVSTFS | 84800 |
| EGGADGEEEEDGEEEVKEKVPAKRGRKPRGERVEEVSSPAAPVRGKKAKPTTA | 41200 |
| EGGEGGDGAGGDGAAAGGKDGEGGKGGGKEEKGGKAGKDAKGGAKKPGSGKKG | 16500 |
| EGGEGGSGSGSGGNAKTRRKGRRRGSSRDGAGAGAGAGAGEGAGGEVGRSKKK | 7430 |
| EGGEKGGHGGKEGGEGGEGGEGGEEGGHGGHWGHKKHGHGGGKQKGGWGHHGY | 45300 |
| EGGEKGTKEGGEKKEGAGEKEGGEKKEGGEKEGAKEGGEIGAKEGEEKKEGGE | 17500 |
| EGGRQRERAGGAGGEDSKGEGRREERREEGKGGKGSAEERESREGSARGGEAG | 10200 |
| EGKEERGKGGEGEGGEGGEGERRDGKREGREGNGNRGGTEGKGERRKRKSQRE | 28700 |
| EGKGKKGEKREREKRRGRGGKREKRRKREGRRRREKREGKEGGGEKEEKEGEE | 29000 |
| EGKKREEEEGRRKEGGTEEDREREPKRGDRRSRGKAGQSPEARERGTGGQGRR | 37200 |
| EGKPVAAEGVKDSWDASSDEEGSNPAPAPAPAAKAKPSQKANGTHVPISESQT | 40500 |
| EGKTRESKQKQGRERIGKGKGSREKGERREEEEGKGGKRRAGRKEGEWRSRGS | 32400 |
| EGLGTAWLFKKEDLLCKSAYEIATISNSWLCGVQGTLLMYLVLVLLCLSFFLI | 30800 |
| EGLYKCRYGSYFIELSRYSFFFAMFLFFLRAGWYPFSAFWLGCFWHQLVFTAH | 40800 |
